In patent publication US9803013B2, “Biological materials and uses thereof” (BioInvent International AB, priority 2005, dated 2017):

System: RPMI-8226 myeloma tumors
Experiment: Established RPMI-8226 tumors in SCID mice with macrophage or NK cell depletion
Assay type: in vivo, mouse
Excerpt: Fc-FcγR-interactions, in addition to enhancing antibody induced negative signalling and tumor PCD (Wilson et al., 2011), may involve both innate and adaptive arms of cellular immunity (Alduaij and Illidge, 2011; Park et al., 2010). Different approaches to assess the role of NK cells and macrophages were used—two principal cell types capable of conferring FcγR dependent antitumor effects—for BI-505 therapeutic activity; Firstly, the relative abundance of these cell types in tumor tissue harvested from BI-505 or control antibody treated mice were examined. […] In contrast, very few intratumoral NK cells could be detected (CD49b^+ CD31^− cells). […] To verify this macrophages or NK cells were depleted, using clodronate liposomes and anti-asialo antibodies respectively, from SCID mice bearing established RPMI-8226 myeloma tumors and examined the effect on BI-505 anti-myeloma activity. A period of three weeks of macrophage and NK cell depletion was chosen as read out since this was the longest time-period where neither treatment affected animal well-being. […] Tumors of macrophage depleted BI-505 treated mice had doubled in size compared with tumors from animals receiving BI-505 treatment alone (VBI-505=95±39 mm^3, VBI-505+clodro=189±94 mm^3, p<0.001), but were similarly sized compared to tumors from control antibody treated mice (Vctrl IgG=198±90 mm^3, p>0.05). NK cell depletion, in contrast, had little or no effect on BI-505 antitumor activity. […]
Treatment with antibodies by intraperitoneal injection started either 1 day after cell inoculation (prophylactic model) or when tumors reached approximately 100 mm^3 (established model). […] Macrophage and NK cell depletion was assessed upon termination of tumor bearing mice exposed to effector cell depleting agents (see above), spleens were removed and splenocytes isolated by mincing through a cell strainer (70 μm nylon mesh, BD Falcon 352350), erythrocytes were removed by lysis according to manufacturer (BD Pharm Lyse 555899, BD Biosciences). […]

B1: B11: fully human IgG1 antibody specific for ICAM-1; VH and VL sequences of FIG. 10 (SEQ ID NOs. 6 and 8) (antibody, listed as Homo sapiens, V domains shown)
VH: EVQLLESGGGLVQPGGSLRLSCAASGFTFSNAWMSWVRQAPGKGLEWVAFIWYDGSNKYYADSVKGRFTISRDNSKNTLYLQMNSLRAEDTAVYYCARYSGWYFDYWGQGTLVTVSS
VL: QSVLTQPPSASGTPGQRVTISCTGSSSNIGAGYDVHWYQQLPGTAPKLLIYDNNNRPSGVPDRFSGSKSGTSASLAISGLRSEDEADYYCQSYDSSLSAWLFGGGTKLTVLG
With B1 the tumor volume (BI-505 treatment alone, three weeks) was 95±39 mm^3, the tumor volume (NK cell depleted (anti-asialo) BI-505 treated mice) was 130±53 mm^3 and the tumor volume (macrophage depleted (clodronate liposomes) BI-505 treated mice) was 189±94 mm^3.
